Reference: article PMC7555870, “Isolation, Evaluation, and Identification of Angiotensin I-Converting Enzyme Inhibitory Peptides from Game Meat” (Foods, 2020)
Like-named read-outs stand apart in the source and are kept apart here. Marks after values point to notes of the source that are not given here. Blank lines part the entries; values can stand above or below the molecule they belong to. Where no end group is shown, it is not given here. [ ]: non-standard residue; d: D form.

How the values were obtained:
[1] = biological target: T1, ACE, a dipeptidyl carboxypeptidase (EC 3.4.15.1) extracted from rabbit lung (Oryctolagus cuniculus, UniProt P12822); experiment: ACE inhibitory activity assay, modified Cheung method (96-well plate, HHL, OPA fluorescence); assay type: biochemical; details: synthesized peptides identified from digested venison; mean ± SD of three repeated experiments; ND = not detectable
T1 construct: extracted from rabbit lung; purchased Sigma Chemical Co. (St. Louis, MO, USA); host or cells: rabbit lung tissue
T1 sequence (P12822 34-1310): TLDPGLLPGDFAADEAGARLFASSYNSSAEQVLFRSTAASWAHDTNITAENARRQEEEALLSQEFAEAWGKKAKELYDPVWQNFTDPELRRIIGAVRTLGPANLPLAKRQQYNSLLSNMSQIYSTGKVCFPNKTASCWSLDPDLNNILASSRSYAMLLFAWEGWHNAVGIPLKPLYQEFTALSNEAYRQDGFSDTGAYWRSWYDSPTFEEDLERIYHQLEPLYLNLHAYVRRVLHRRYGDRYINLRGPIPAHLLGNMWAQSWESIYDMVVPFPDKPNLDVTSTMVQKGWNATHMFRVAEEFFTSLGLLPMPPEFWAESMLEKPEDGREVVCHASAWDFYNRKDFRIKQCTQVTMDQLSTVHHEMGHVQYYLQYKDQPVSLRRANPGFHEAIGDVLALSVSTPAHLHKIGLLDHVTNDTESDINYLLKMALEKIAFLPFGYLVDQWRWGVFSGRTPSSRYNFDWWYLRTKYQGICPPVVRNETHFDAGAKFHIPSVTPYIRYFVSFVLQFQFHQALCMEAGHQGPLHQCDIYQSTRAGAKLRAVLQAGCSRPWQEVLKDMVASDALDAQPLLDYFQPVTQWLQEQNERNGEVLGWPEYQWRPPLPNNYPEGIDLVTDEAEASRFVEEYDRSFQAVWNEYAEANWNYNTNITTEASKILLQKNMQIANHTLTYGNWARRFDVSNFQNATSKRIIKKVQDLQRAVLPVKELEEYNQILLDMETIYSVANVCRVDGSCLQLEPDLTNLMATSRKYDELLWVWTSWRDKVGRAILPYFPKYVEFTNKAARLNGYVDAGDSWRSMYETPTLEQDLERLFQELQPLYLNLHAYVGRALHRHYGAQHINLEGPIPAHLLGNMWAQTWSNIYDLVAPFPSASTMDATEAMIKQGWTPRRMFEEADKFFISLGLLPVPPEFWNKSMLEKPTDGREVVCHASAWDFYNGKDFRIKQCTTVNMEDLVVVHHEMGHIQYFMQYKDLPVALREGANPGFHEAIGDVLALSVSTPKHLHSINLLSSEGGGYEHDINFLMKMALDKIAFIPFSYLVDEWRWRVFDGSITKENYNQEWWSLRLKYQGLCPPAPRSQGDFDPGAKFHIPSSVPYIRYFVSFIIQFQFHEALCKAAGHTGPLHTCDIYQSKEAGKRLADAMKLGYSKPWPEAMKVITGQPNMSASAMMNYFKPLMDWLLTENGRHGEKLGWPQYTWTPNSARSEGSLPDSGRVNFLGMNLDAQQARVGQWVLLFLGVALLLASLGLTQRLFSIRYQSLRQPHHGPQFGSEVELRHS
Procedure: The digested samples were centrifuged at 10,000× g for 15 min, and the supernatants were subjected to an ACE inhibitory assay. ACE inhibitory activity was measured using a previously reported method. ACE, a dipeptidyl carboxypeptidase (EC 3.4.15.1) extracted from rabbit lung, was obtained from Sigma Chemical Co. (St. Louis, MO, USA). Hippuryl-L-histidyl-L-leucine (HHL) (Nacalai Tesque) was used as the synthetic substrate. A 40 µL aliquot of each sample solution was added to 100 µL of borate buffer (containing 0.3 M NaCl, 5 mM HHL, pH 8.3) and incubated at 37 °C for 3 min. Then, 20 µL ACE solution (0.1 U mL^−1) was added to each sample solution, and the reaction mixture was incubated at 37 °C for 30 min. After that, the reaction was terminated using 250 µL of 1 M HCl, and hippuric acid was extracted by adding 1.5 mL of ethyl acetate and shaking. Eventually, mixtures were centrifuged at 1750× g for 10 min, 1 mL of supernatant was transferred into a test tube, and ethyl acetate was eliminated by heat evaporation at 95 °C. The precipitate was re-dissolved in 2 mL of deionized water and measured spectrophotometrically at 228 nm, using a UV-1800 spectrophotometer (Shimadzu, Kyoto, Japan). For the analysis of samples fractionated by reversed-phase chromatography, the synthetic peptides were assayed using the modified method reported by Cheung, et al.. Briefly, 50 µL of sample solution, 100 µL of the ACE 0.01 U/mL, and 20 µL of 25 mM HHL were mixed in a 96-well plate and incubated at 37 °C for 40 min. Subsequently, 100 µL of 1 M NaOH, 10 µL 0.2% OPA, and 15 µL 3.6 M phosphoric acid were added, and the fluorescence of samples was measured using the plate-reader POWERSCAN MX (DS Pharma Biomedical Co., Ltd., Osaka, Japan) at an excitation wavelength of 360 nm and emission wavelength of 460 nm. The inhibitory activity (%) was calculated as follows: inhibitory activity (%) = ((Ac – As)/(Ac – Ab)) × 100. Ac is the intensity of the control, as is the intensity of the sample, and Ab is the intensity of the blank. Data are expressed as the 50% inhibitory concentration (IC50) for each sample.

ACE = details: previously reported peptides; cited from earlier work
Text: The potent ACE inhibitory peptides are generally short chains of 3–6 amino acids, with a Ser, Leu, or Thr at the C-terminal, which plays an important role in this activity. The ACE inhibitory peptides identified in this study, except for IKEVTER, seem to be of a larger size than those of inhibitory peptides described in previous reports. ACE inhibitory peptides have been previously reported from meat and seafood vertebrate specimens, and their IC50 values have been reported.

[2] = biological target: T2, angiotensin I-converting enzyme (ACE), a dipeptidyl carboxypeptidase (EC 3.4.15.1) extracted from rabbit lung (rabbit) (UniProt P12822)
T2 sequence: T1 sequence (P12822 34-1310)

Molecule: TEAGATVTVK [TEAGATVTVK]
- IC50 [1]: 214 µM

Molecule: mQGTLEDQIISANPLLEAFGNAK ([code m]QGTLEDQIISANPLLEAFGNAK; not fully specified; printed as mQGTLEDQIISANPLLEAFGNAK) [synthesized peptide identified from digested venison; origin Myosin-1]
- Ace Inhibitory Activity (IC50) [1]: 292.83 ± 38.27 ^a,b μg/mL

Molecule: GLSDGEWQ
- ACE inhibition IC50 values (ACE): 50.5 µg/mL

Molecule: GFHI
- ACE inhibition IC50 values (ACE): 117 µg/mL

Molecule: DFHING
- ACE inhibition IC50 values (ACE): 64.3 µg/mL

Molecule: VcNYVNWIQQTIAAN (V[code c]NYVNWIQQTIAAN; not fully specified; printed as VcNYVNWIQQTIAAN) [synthesized peptide identified from digested venison; origin Tropomyosin alpha-3 chain]
- Ace Inhibitory Activity (IC50) [1]: 358.64 ± 64.71 ^a μg/mL

Molecule: IKEVTER [IKEVTER, Isoleucine-Lysine- Glutamic Acid-Valine-Threonine-Glutamic Acid-Arginine]
- IC50 [1]: 99 µM

- ACE inhibitory activity (IC50; hydrolysis of hippuryl-L-histidyl-L-leucine by ACE, OPA fluorescence, 37 °C) [2]: 359 µg/mL
- ACE inhibitory activity (IC50; hydrolysis of hippuryl-L-histidyl-L-leucine by ACE, OPA fluorescence, 37 °C) ([2]; record 2): 293 µg/mL
- ACE inhibitory activity (IC50; hydrolysis of hippuryl-L-histidyl-L-leucine by ACE, OPA fluorescence, 37 °C) ([2]; record 3): 86.5 µg/mL
- ACE inhibitory activity (IC50; hydrolysis of hippuryl-L-histidyl-L-leucine by ACE, OPA fluorescence, 37 °C) ([2]; record 4): 209 µg/mL
B1: … (peptide)
peptide: TEAGATVTVK
